# Patent publication US20240002497A1 (Merck Sharp & Dohme, published 2024)
# Residue numbers refer to the chain shown, from its start. Numbers in names are those of the source. Read-outs that look alike come from different tables or passages of the source.
# B1: F010301162 (VHH)
# VHH: EVQLVESGGGLVQPGGSLRLSCAASGMLFNRNTQGWYRQAPGKQRELVAFIFSGGWTNYNDSVKGRFTISRDNAKRTMYLQMNSLKPEDSAIYYCSLSRYQGQGTLVTVSS
# B2: F010301080 (VHH)
# VHH: B1 VHH with R31A, S53W, W56Y, T57V, N58T, Q101L
# B3: F010301129 (VHH)
# VHH: B1 VHH with R31A, S96A
# B4: F010301191 (VHH)
# VHH: B1 VHH with S96A, R99V
# B5: F010301090 (VHH)
# VHH: B1 VHH with R31A, N58T
# B6: F010301191 (VHH)
# VHH: B1 VHH with S96A, R99V
# notes: vs F0103265A11: A31R, Y56W, V60N, S93A, R101V, L103Q
# B7: F010301090 (VHH)
# VHH: B1 VHH with R31A, N58T
# notes: vs F0103265A11: Y56W, N58T, V60N, L103Q
# B8: F010301162 (VHH)
# VHH: B1 VHH
# notes: vs F0103265A11: A31R, Y56W, V60N, L103Q
# B9: F010301129 (VHH)
# VHH: B1 VHH with R31A, S96A
# notes: vs F0103265A11: Y56W, V60N, S93A, L103Q
# B10: F010301080 (VHH)
# VHH: B1 VHH with R31A, S53W, W56Y, T57V, N58T, Q101L
# notes: also called F0103265A11(S53W, T57V, N58T, V60N)
# B11: F010301558 (VHH)
# VHH: EVQLVESGGGLVQAGGSLRLSCAASGRILRIGYMRWHRQGAGKQREFVARITGDSATGYADSVKGRFTISRDNAKNTVYLQMNNLNPEDTAVYYCEALVTASVRGGSIHSGTYWGRGTLVTVSS
# B12: F010301559 (VHH)
# VHH: B11 VHH with G53D, D54G
# How the values were obtained:
# huNav1.7α + β1 [1] = target: huNav1.7α + β1 (human); assay: cell-based or functional assay
# huNav1.7α+β1 [2] = target: T1, huNav1.7α+β1 (human, UniProt Q15858 1-1988; Q07699 19-218); assay: cell-based or functional assay
# huNav1.7α+β1 [3] = target: T1, huNav1.7α+β1; assay: binding FACS, HEKa/β1 cells
# Summary of the method: (§1)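 Cells in FACS buffer (PBS, 10% FBS, NaN₃) were incubated with purified FLAG3-tagged ISVD for 30 minutes at 4° C. Bound ISVD was detected by flow cytometry with murine anti-Flag, and dead cells were excluded with 1 μg/mL propidium iodide.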
# huNav1.7α = target: T2, huNav1.7α (human, UniProt Q15858 1-1988); assay: binding FACS, HEKa cells
# T2 construct: HEK cells expressing the α subunit alone; also called HEKa; HEK huNav1.7α
# Summary of the method: as §1
# huNav1.7α+β1-β2-β3 = target: T3, huNav1.7α+β1-β2-β3 (human, UniProt Q15858 1-1988; Q07699 19-218; O60939 30-215; Q9NY72 23-215); assay: binding FACS, HEK FlpIn cells
# T3 construct: 5N11S variant; also called huNav1.7-beta1-beta2-beta3; huNav1.7α+Navβ1-Navβ2-Navβ3
# huNav1.7α + β1 [4] = target: huNav1.7α + β1 (human); assay: cell-based or functional assay; remark: listed apart in the source
Binder,Qpatch IC50 (huNav1.7α + β1 [1]) [nM],"IC50 [M], electrophysiology (huNav1.7α+β1 [2]) [M]",Bmax relative to '535 (huNav1.7α+β1 [3]) [%],EC50 (huNav1.7α+β1 [3]) [nM],other results
B1,32,–,–,–,–
B2,14,–,–,–,–
B3,126,–,–,–,–
B4,63,–,–,–,–
B5,22,–,–,–,–
B6,–,6.3e-08,119,4.1,–
B7,–,2.2e-08,102,4.8,–
B8,–,3.2e-08,115,3.8,–
B9,–,1.3e-07,103,3.6,–
B10,–,1.4e-08,122,3,EC50 (huNav1.7α): 26 nM; EC50 (huNav1.7α+β1-β2-β3): 5.1 nM
B11,–,–,–,–,Qpatch IC50 (huNav1.7α + β1 [4]): 8 nM
B12,–,–,–,–,Qpatch IC50 (huNav1.7α + β1 [4]): 12 nM
